# Laboratory results taken from patent US20230159662A1 (Kyowa Kirin, published 2023).
# Target: human CD16a (Val type) stably expressed on NK-92 cells (NK-92/CD16 transfectant) (human, UniProt P08637 17-254)
# Test: cell-based or functional assay
# Chain of human CD16a (Val type) stably expressed on NK-92 cells (NK-92/CD16 transfectant) (P08637 17-254 F176V): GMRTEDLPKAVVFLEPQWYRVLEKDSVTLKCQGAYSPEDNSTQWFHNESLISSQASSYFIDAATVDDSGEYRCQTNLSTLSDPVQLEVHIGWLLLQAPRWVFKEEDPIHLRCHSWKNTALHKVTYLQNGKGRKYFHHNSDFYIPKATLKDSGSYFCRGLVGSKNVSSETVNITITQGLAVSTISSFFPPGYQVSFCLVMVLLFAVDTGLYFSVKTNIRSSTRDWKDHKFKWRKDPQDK
row,Binder,relative ADCC activity (AAA = 100)
1,"human IgG1 anti-human CCR4 antibody (KM2160), F243L/R292P/Y300L/V305I/P396L (antibody) heavy: EVQLVESGGDLMKPGGSLKISCAASGFIFSNYGMSWVRQTPDMRLEWVATISSASTYSYYPDSVKGRFTISRDNAENSLYLQMNSLRSEDTGIYYCGRHSDGNFAFGYWGRGTLVTVSAASTKGPSVFPLAPSSKSTSGGTAALGCLVKDYFPEPVTVSWNSGALTSGVHTFPAVLQSSGLYSLSSVVTVPSSSLGTQTYICNVNHKPSNTKVDKKVEPKSCDKTHTCPPCPAPELLGGPSVFLLPPKPKDTLMISRTPEVTCVVVDVSHEDPEVKFNWYVDGVEVHNAKTKPPEEQYNSTLRVVSILTVLHQDWLNGKEYKCKVSNKALPAPIEKTISKAKGQPREPQVYTLPPSRDELTKNQVSLTCLVKGFYPSDIAVEWESNGQPENNYKTTPLVLDSDGSFFLYSKLTVDKSRWQQGNVFSCSVMHEALHNHYTQKSLSLSPGK light: DVLMTQTPLSLPVSLGDQASISCRSSRNIVHINGDTYLEWYLQRPGQSPKLLIYKVSNRFSGVPDRFSGSGSGTDFTLKISRVEAEDLGVYYCFQGSLLPWTFGGGTRLEIRRTVAAPSVFIFPPSDEQLKSGTASVVCLLNNFYPREAKVQWKVDNALQSGNSQESVTEQDSKDSTYSLSSTLTLSKADYEKHKVYACEVTHQGLSSPVTKSFNRGEC","-9 relative, AAA at 0.1 µg/mL = 100"
2,"human IgG1 anti-human CCR4 antibody (KM2160), S239E/I332F (antibody) heavy: not shown light: DVLMTQTPLSLPVSLGDQASISCRSSRNIVHINGDTYLEWYLQRPGQSPKLLIYKVSNRFSGVPDRFSGSGSGTDFTLKISRVEAEDLGVYYCFQGSLLPWTFGGGTRLEIRRTVAAPSVFIFPPSDEQLKSGTASVVCLLNNFYPREAKVQWKVDNALQSGNSQESVTEQDSKDSTYSLSSTLTLSKADYEKHKVYACEVTHQGLSSPVTKSFNRGEC","34 relative, AAA at 0.1 µg/mL = 100"
3,"human IgG1 anti-human CCR4 antibody (KM2160), S239E/I332E, CH of SEQ ID NO 176 (antibody) heavy: not shown light: DVLMTQTPLSLPVSLGDQASISCRSSRNIVHINGDTYLEWYLQRPGQSPKLLIYKVSNRFSGVPDRFSGSGSGTDFTLKISRVEAEDLGVYYCFQGSLLPWTFGGGTRLEIRRTVAAPSVFIFPPSDEQLKSGTASVVCLLNNFYPREAKVQWKVDNALQSGNSQESVTEQDSKDSTYSLSSTLTLSKADYEKHKVYACEVTHQGLSSPVTKSFNRGEC","153 relative, AAA at 0.1 µg/mL = 100"
4,"human IgG1 anti-human CCR4 antibody (KM2160), F243L/R292P/Y300L (antibody) heavy: EVQLVESGGDLMKPGGSLKISCAASGFIFSNYGMSWVRQTPDMRLEWVATISSASTYSYYPDSVKGRFTISRDNAENSLYLQMNSLRSEDTGIYYCGRHSDGNFAFGYWGRGTLVTVSAASTKGPSVFPLAPSSKSTSGGTAALGCLVKDYFPEPVTVSWNSGALTSGVHTFPAVLQSSGLYSLSSVVTVPSSSLGTQTYICNVNHKPSNTKVDKKVEPKSCDKTHTCPPCPAPELLGGPSVFLLPPKPKDTLMISRTPEVTCVVVDVSHEDPEVKFNWYVDGVEVHNAKTKPPEEQYNSTLRVVSVLTVLHQDWLNGKEYKCKVSNKALPAPIEKTISKAKGQPREPQVYTLPPSRDELTKNQVSLTCLVKGFYPSDIAVEWESNGQPENNYKTTPPVLDSDGSFFLYSKLTVDKSRWQQGNVFSCSVMHEALHNHYTQKSLSLSPGK light: DVLMTQTPLSLPVSLGDQASISCRSSRNIVHINGDTYLEWYLQRPGQSPKLLIYKVSNRFSGVPDRFSGSGSGTDFTLKISRVEAEDLGVYYCFQGSLLPWTFGGGTRLEIRRTVAAPSVFIFPPSDEQLKSGTASVVCLLNNFYPREAKVQWKVDNALQSGNSQESVTEQDSKDSTYSLSSTLTLSKADYEKHKVYACEVTHQGLSSPVTKSFNRGEC","3 relative, AAA at 0.1 µg/mL = 100"
5,"human IgG1 anti-human CCR4 antibody (KM2160), S239E/I332A (antibody) heavy: not shown light: DVLMTQTPLSLPVSLGDQASISCRSSRNIVHINGDTYLEWYLQRPGQSPKLLIYKVSNRFSGVPDRFSGSGSGTDFTLKISRVEAEDLGVYYCFQGSLLPWTFGGGTRLEIRRTVAAPSVFIFPPSDEQLKSGTASVVCLLNNFYPREAKVQWKVDNALQSGNSQESVTEQDSKDSTYSLSSTLTLSKADYEKHKVYACEVTHQGLSSPVTKSFNRGEC","62 relative, AAA at 0.1 µg/mL = 100"
6,"human IgG1 anti-human CCR4 antibody (KM2160), P230A/E233D/I332E (antibody) heavy: EVQLVESGGDLMKPGGSLKISCAASGFIFSNYGMSWVRQTPDMRLEWVATISSASTYSYYPDSVKGRFTISRDNAENSLYLQMNSLRSEDTGIYYCGRHSDGNFAFGYWGRGTLVTVSAASTKGPSVFPLAPSSKSTSGGTAALGCLVKDYFPEPVTVSWNSGALTSGVHTFPAVLQSSGLYSLSSVVTVPSSSLGTQTYICNVNHKPSNTKVDKKVEPKSCDKTHTCPPCAAPALLGGPSVFLFPPKPKDTLMISRTPEVTCVVVDVSHEDPEVKFNWYVDGVEVHNAKTKPREEQYNSTYRVVSVLTVLHQDWLNGKEYKCKVSNKALPAPEEKTISKAKGQPREPQVYTLPPSRDELTKNQVSLTCLVKGFYPSDIAVEWESNGQPENNYKTTPPVLDSDGSFFLYSKLTVDKSRWQQGNVFSCSVMHEALHNHYTQKSLSLSPGK light: DVLMTQTPLSLPVSLGDQASISCRSSRNIVHINGDTYLEWYLQRPGQSPKLLIYKVSNRFSGVPDRFSGSGSGTDFTLKISRVEAEDLGVYYCFQGSLLPWTFGGGTRLEIRRTVAAPSVFIFPPSDEQLKSGTASVVCLLNNFYPREAKVQWKVDNALQSGNSQESVTEQDSKDSTYSLSSTLTLSKADYEKHKVYACEVTHQGLSSPVTKSFNRGEC","53 relative, AAA at 0.1 µg/mL = 100"
7,"human IgG1 anti-human CCR4 antibody (KM2160), S239E/I332H (antibody) heavy: not shown light: DVLMTQTPLSLPVSLGDQASISCRSSRNIVHINGDTYLEWYLQRPGQSPKLLIYKVSNRFSGVPDRFSGSGSGTDFTLKISRVEAEDLGVYYCFQGSLLPWTFGGGTRLEIRRTVAAPSVFIFPPSDEQLKSGTASVVCLLNNFYPREAKVQWKVDNALQSGNSQESVTEQDSKDSTYSLSSTLTLSKADYEKHKVYACEVTHQGLSSPVTKSFNRGEC","71 relative, AAA at 0.1 µg/mL = 100"

# Now from value to binder:
row,relative ADCC activity (AAA = 100),Binder
1,"130 relative, AAA at 0.1 µg/mL = 100","human IgG1 anti-human CCR4 antibody (KM2160), S239E/I332Y (antibody) heavy: not shown light: DVLMTQTPLSLPVSLGDQASISCRSSRNIVHINGDTYLEWYLQRPGQSPKLLIYKVSNRFSGVPDRFSGSGSGTDFTLKISRVEAEDLGVYYCFQGSLLPWTFGGGTRLEIRRTVAAPSVFIFPPSDEQLKSGTASVVCLLNNFYPREAKVQWKVDNALQSGNSQESVTEQDSKDSTYSLSSTLTLSKADYEKHKVYACEVTHQGLSSPVTKSFNRGEC"
2,"44 relative, AAA at 0.1 µg/mL = 100","human IgG1 anti-human CCR4 antibody (KM2160), S239E/I332W (antibody) heavy: not shown light: DVLMTQTPLSLPVSLGDQASISCRSSRNIVHINGDTYLEWYLQRPGQSPKLLIYKVSNRFSGVPDRFSGSGSGTDFTLKISRVEAEDLGVYYCFQGSLLPWTFGGGTRLEIRRTVAAPSVFIFPPSDEQLKSGTASVVCLLNNFYPREAKVQWKVDNALQSGNSQESVTEQDSKDSTYSLSSTLTLSKADYEKHKVYACEVTHQGLSSPVTKSFNRGEC"
3,"129 relative, AAA at 0.1 µg/mL = 100","human IgG1 anti-human CCR4 antibody (KM2160), S239E/K326E (antibody) heavy: not shown light: DVLMTQTPLSLPVSLGDQASISCRSSRNIVHINGDTYLEWYLQRPGQSPKLLIYKVSNRFSGVPDRFSGSGSGTDFTLKISRVEAEDLGVYYCFQGSLLPWTFGGGTRLEIRRTVAAPSVFIFPPSDEQLKSGTASVVCLLNNFYPREAKVQWKVDNALQSGNSQESVTEQDSKDSTYSLSSTLTLSKADYEKHKVYACEVTHQGLSSPVTKSFNRGEC"
4,"135 relative, AAA at 0.1 µg/mL = 100","human IgG1 anti-human CCR4 antibody (KM2160), S239E/K326I (antibody) heavy: not shown light: DVLMTQTPLSLPVSLGDQASISCRSSRNIVHINGDTYLEWYLQRPGQSPKLLIYKVSNRFSGVPDRFSGSGSGTDFTLKISRVEAEDLGVYYCFQGSLLPWTFGGGTRLEIRRTVAAPSVFIFPPSDEQLKSGTASVVCLLNNFYPREAKVQWKVDNALQSGNSQESVTEQDSKDSTYSLSSTLTLSKADYEKHKVYACEVTHQGLSSPVTKSFNRGEC"
5,"109 relative, AAA at 0.1 µg/mL = 100","human IgG1 anti-human CCR4 antibody (KM2160), S239E/K326L (antibody) heavy: not shown light: DVLMTQTPLSLPVSLGDQASISCRSSRNIVHINGDTYLEWYLQRPGQSPKLLIYKVSNRFSGVPDRFSGSGSGTDFTLKISRVEAEDLGVYYCFQGSLLPWTFGGGTRLEIRRTVAAPSVFIFPPSDEQLKSGTASVVCLLNNFYPREAKVQWKVDNALQSGNSQESVTEQDSKDSTYSLSSTLTLSKADYEKHKVYACEVTHQGLSSPVTKSFNRGEC"
6,"132 relative, AAA at 0.1 µg/mL = 100","human IgG1 anti-human CCR4 antibody (KM2160), S239E/K326T (antibody) heavy: not shown light: DVLMTQTPLSLPVSLGDQASISCRSSRNIVHINGDTYLEWYLQRPGQSPKLLIYKVSNRFSGVPDRFSGSGSGTDFTLKISRVEAEDLGVYYCFQGSLLPWTFGGGTRLEIRRTVAAPSVFIFPPSDEQLKSGTASVVCLLNNFYPREAKVQWKVDNALQSGNSQESVTEQDSKDSTYSLSSTLTLSKADYEKHKVYACEVTHQGLSSPVTKSFNRGEC"
7,"57 relative, AAA at 0.1 µg/mL = 100","human IgG1 anti-human CCR4 antibody (KM2160), S239E/I332L (antibody) heavy: not shown light: DVLMTQTPLSLPVSLGDQASISCRSSRNIVHINGDTYLEWYLQRPGQSPKLLIYKVSNRFSGVPDRFSGSGSGTDFTLKISRVEAEDLGVYYCFQGSLLPWTFGGGTRLEIRRTVAAPSVFIFPPSDEQLKSGTASVVCLLNNFYPREAKVQWKVDNALQSGNSQESVTEQDSKDSTYSLSSTLTLSKADYEKHKVYACEVTHQGLSSPVTKSFNRGEC"
8,"52 relative, AAA at 0.1 µg/mL = 100","human IgG1 anti-human CCR4 antibody (KM2160), S239E/I332T (antibody) heavy: not shown light: DVLMTQTPLSLPVSLGDQASISCRSSRNIVHINGDTYLEWYLQRPGQSPKLLIYKVSNRFSGVPDRFSGSGSGTDFTLKISRVEAEDLGVYYCFQGSLLPWTFGGGTRLEIRRTVAAPSVFIFPPSDEQLKSGTASVVCLLNNFYPREAKVQWKVDNALQSGNSQESVTEQDSKDSTYSLSSTLTLSKADYEKHKVYACEVTHQGLSSPVTKSFNRGEC"
9,"90 relative, AAA at 0.1 µg/mL = 100","human IgG1 anti-human CCR4 antibody (KM2160), printed as S239E/I332E, CH of SEQ ID NO 178 (antibody) heavy: not shown light: DVLMTQTPLSLPVSLGDQASISCRSSRNIVHINGDTYLEWYLQRPGQSPKLLIYKVSNRFSGVPDRFSGSGSGTDFTLKISRVEAEDLGVYYCFQGSLLPWTFGGGTRLEIRRTVAAPSVFIFPPSDEQLKSGTASVVCLLNNFYPREAKVQWKVDNALQSGNSQESVTEQDSKDSTYSLSSTLTLSKADYEKHKVYACEVTHQGLSSPVTKSFNRGEC"
